According to PMC9636267 (2022):
Like-named read-outs stand apart in the source and are kept apart here.

Legend:
Assay in all cases: SPR
S10 [1] = target: S10
R07 [2] = target: R07
R17 [3] = target: R17
R10 [4] = target: R10
S02 [5] = target: S02
S15 [6] = target: S15
R14 [7] = target: R14
S08 [8] = target: S08
S10 [9] = target: S10; remark: listed apart in the source
R07 [10] = target: R07; remark: listed apart in the source
R17 [11] = target: R17; remark: listed apart in the source
R10 [12] = target: R10; remark: listed apart in the source
S02 [13] = target: S02; remark: listed apart in the source
S15 [14] = target: S15; remark: listed apart in the source
R14 [15] = target: R14; remark: listed apart in the source
S08 [16] = target: S08; remark: listed apart in the source
[17] = target: T1, HCoV-229E S ectodomain (17–1115 aa), 229E S trimer (human coronavirus 229E, UniProt P15423 17-1115)
T1 chain: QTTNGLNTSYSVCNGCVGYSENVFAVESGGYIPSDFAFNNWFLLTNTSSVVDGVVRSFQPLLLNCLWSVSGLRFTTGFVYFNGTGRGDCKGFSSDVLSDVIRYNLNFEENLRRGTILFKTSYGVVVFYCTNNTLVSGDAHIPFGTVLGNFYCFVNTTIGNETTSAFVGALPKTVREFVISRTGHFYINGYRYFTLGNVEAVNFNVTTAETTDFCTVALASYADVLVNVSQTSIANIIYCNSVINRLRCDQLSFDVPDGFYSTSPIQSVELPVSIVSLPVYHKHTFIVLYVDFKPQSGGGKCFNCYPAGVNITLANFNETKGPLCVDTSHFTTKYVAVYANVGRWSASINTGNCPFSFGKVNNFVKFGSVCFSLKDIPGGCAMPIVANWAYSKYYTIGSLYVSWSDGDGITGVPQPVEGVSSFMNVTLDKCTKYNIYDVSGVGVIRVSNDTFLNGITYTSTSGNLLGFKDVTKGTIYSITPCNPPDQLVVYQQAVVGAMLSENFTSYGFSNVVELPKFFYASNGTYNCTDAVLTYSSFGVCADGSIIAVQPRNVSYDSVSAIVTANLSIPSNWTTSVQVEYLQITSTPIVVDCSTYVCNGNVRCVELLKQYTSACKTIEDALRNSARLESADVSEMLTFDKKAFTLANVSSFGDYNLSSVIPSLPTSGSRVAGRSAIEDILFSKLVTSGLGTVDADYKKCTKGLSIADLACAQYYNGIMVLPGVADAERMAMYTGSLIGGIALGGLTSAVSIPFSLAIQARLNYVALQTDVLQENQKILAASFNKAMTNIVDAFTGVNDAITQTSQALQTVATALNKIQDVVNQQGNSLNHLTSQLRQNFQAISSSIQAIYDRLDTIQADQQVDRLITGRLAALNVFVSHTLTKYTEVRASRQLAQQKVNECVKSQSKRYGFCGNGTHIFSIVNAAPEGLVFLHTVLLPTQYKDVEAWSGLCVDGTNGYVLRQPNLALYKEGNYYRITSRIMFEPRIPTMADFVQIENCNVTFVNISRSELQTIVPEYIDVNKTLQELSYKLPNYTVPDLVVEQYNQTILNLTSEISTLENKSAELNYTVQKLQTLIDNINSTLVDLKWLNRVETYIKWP

[18] = target: T2, HCoV-229E S2 subunit (575–1115 aa) (human coronavirus 229E, UniProt P15423 575-1115)
T2 chain: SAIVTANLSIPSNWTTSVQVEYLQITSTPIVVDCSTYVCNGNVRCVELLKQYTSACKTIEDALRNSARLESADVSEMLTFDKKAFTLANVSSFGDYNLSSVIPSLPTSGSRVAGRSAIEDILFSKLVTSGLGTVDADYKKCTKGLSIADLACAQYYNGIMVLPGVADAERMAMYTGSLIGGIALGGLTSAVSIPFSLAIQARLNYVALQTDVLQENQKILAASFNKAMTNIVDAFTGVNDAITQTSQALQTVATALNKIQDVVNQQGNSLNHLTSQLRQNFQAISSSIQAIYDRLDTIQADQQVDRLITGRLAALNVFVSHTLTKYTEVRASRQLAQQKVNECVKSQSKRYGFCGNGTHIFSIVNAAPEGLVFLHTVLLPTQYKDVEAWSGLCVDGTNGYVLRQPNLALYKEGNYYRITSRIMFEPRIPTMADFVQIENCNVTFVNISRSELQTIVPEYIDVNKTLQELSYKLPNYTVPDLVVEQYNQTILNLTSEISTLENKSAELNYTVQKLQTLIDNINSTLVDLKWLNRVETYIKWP

[19] = target: T3, HCoV-229E S1 subunit (17–560 aa) (human coronavirus 229E, UniProt P15423 17-560)
T3 chain: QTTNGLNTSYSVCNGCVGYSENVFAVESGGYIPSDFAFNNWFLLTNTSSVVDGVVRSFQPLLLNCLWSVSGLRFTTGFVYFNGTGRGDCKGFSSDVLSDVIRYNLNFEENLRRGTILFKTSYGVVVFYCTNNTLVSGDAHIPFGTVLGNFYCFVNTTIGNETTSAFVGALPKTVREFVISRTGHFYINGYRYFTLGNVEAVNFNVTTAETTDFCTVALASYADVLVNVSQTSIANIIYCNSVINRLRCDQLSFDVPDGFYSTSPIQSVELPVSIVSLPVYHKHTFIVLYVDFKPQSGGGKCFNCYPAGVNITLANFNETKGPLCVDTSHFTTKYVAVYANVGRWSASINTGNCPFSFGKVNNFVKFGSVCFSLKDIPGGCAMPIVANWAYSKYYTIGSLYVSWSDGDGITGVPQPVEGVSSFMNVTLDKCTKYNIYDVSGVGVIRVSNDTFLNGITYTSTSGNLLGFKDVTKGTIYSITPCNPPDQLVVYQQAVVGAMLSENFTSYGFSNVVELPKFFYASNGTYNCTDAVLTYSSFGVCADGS

[20] = target: T4, HCoV-229E NTD (17–265 aa) (human coronavirus 229E, UniProt P15423 17-265)
T4 chain: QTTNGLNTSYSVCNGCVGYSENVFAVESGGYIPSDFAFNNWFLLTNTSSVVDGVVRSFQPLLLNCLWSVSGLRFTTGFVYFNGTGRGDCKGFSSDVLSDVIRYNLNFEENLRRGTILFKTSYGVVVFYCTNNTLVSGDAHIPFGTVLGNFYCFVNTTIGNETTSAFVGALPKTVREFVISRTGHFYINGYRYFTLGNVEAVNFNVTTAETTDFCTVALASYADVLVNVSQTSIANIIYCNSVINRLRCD

[21] = target: T1, HCoV-229E S ectodomain (17–1115 aa), …
[22] = target: T3, HCoV-229E S1 subunit (17–560 aa)
[23] = target: T4, HCoV-229E NTD (17–265 aa)
[24] = target: T5, HCoV-NL63 S ectodomain (16–1291 aa) (human coronavirus NL63, UniProt Q6Q1S2 16-1291)
T5 chain: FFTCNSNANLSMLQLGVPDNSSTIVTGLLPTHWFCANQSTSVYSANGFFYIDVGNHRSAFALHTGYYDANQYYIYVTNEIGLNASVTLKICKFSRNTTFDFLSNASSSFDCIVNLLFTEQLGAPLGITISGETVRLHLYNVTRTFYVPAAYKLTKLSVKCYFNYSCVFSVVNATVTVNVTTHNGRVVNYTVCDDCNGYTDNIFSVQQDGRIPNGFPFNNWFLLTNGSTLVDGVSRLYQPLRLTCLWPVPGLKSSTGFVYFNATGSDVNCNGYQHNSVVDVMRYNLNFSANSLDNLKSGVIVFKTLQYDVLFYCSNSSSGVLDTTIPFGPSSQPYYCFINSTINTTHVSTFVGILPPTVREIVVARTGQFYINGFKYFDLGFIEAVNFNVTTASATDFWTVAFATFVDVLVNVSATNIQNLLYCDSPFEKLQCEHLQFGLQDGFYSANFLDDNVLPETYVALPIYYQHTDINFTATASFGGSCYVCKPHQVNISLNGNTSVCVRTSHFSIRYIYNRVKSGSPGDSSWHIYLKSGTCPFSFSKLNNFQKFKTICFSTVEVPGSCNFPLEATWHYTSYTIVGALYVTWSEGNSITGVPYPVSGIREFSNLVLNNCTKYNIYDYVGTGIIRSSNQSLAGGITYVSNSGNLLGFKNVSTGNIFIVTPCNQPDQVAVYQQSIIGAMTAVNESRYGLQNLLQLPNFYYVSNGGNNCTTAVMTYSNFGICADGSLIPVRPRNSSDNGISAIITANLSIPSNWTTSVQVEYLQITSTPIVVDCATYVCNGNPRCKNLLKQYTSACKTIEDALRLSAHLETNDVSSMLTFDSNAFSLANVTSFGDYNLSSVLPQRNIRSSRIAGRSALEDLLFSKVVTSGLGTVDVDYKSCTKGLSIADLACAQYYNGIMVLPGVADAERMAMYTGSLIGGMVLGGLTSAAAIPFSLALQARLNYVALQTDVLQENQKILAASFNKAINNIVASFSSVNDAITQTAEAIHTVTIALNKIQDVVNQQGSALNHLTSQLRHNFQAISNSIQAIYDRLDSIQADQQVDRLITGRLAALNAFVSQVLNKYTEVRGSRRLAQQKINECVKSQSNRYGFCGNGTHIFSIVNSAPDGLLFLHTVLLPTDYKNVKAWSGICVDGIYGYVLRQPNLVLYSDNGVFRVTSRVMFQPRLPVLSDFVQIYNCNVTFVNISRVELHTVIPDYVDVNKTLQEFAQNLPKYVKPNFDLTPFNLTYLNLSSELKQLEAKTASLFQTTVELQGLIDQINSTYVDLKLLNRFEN

[25] = target: T5, HCoV-NL63 S ectodomain (16–1291 aa)

B1: HCoV-229E RBD (294–435 aa) (domain or fragment)
chain: PVYHKHTFIVLYVDFKPQSGGGKCFNCYPAGVNITLANFNETKGPLCVDTSHFTTKYVAVYANVGRWSASINTGNCPFSFGKVNNFVKFGSVCFSLKDIPGGCAMPIVANWAYSKYYTIGSLYVSWSDGDGITGVPQPVEGV
Kd (S10 [1]): 0.51 nM
koff (S10 [1]): 0.0031 s⁻¹
koff (R07 [2]): 0.0016 s⁻¹
Kd (R17 [3]): 0.92 nM
koff (R17 [3]): 0.0025 s⁻¹
Kd (R10 [4]): 0.32 nM
koff (R10 [4]): 0.0019 s⁻¹
Kd (S02 [5]): 0.49 nM
koff (S02 [5]): 0.0018 s⁻¹
Kd (S15 [6]): 0.26 nM
koff (S15 [6]): 0.00097 s⁻¹
Kd (R14 [7]): 0.81 nM
koff (R14 [7]): 0.003 s⁻¹
Kd (S08 [8]): 2.9 nM
koff (S08 [8]): 0.0053 s⁻¹
Kd (S10 [9]): 0.5 nM
Kd (R07 [10]): 2 nM
Kd (R17 [11]): 0.9 nM
Kd (R10 [12]): 0.3 nM
Kd (S02 [13]): 0.5 nM
Kd (S15 [14]): 0.3 nM
Kd (R14 [15]): 0.8 nM
Kd (S08 [16]): 3 nM

B2: Fab F12 (Fab, V domains shown)
VH: EVQLVESGGGLVQPGGSLRLSCAASGFNLYYYYIHWVRQAPGKGLEWVASISPYSGYTSYADSVKGRFTISADTSKNTAYLQMNSLRAEDTAVYYCARAFSSYYSHSVGLDYWGQGTLVTVSS
VL: DIQMTQSPSSLSASVGDRVTITCRASQSVSSAVAWYQQKPGKAPKLLIYSASSLYSGVPSRFSGSRSGTDFTLTISSLQPEDFATYYCQQHSWGGLITFGQGTKVEIK
koff [17]: 0.00091 s⁻¹
koff [18]: 2.7e-05 s⁻¹

B3: Fab F07 (Fab, V domains shown)
VH: EVQLVESGGGLVQPGGSLRLSCAASGFNISYYSIHWVRQAPGKGLEWVASIYPYYGYTSYADSVKGRFTISADTSKNTAYLQMNSLRAEDTAVYYCARSSGYYHYPYSHSGLDYWGQGTLVTVSS
VL: DIQMTQSPSSLSASVGDRVTITCRASQSVSSAVAWYQQKPGKAPKLLIYSASSLYSGVPSRFSGSRSGTDFTLTISSLQPEDFATYYCQQSYYWGGPITFGQGTKVEIK
Kd [19]: 0.7 nM
Kd [20]: 3.1 nM
Kd [21]: 1.4 nM
koff [17]: 0.00035 s⁻¹
koff [22]: 0.00036 s⁻¹
koff [23]: 0.00053 s⁻¹
Kd [24]: 3900 nM
Kd [25]: 6400 nM
